Data on 6 molecules can be found in US20230295313A1.

Positions count from the first letter of the chain named.

Assay [1] concerns the target biotin-labeled human IL1RAP (human) (UniProt Q9NPH3). Description: competition ELISA; competitor: capture mAb001 coated; biotin-hIL1RAP.
Assay [2] shares this target. Description: competition ELISA; competitor: capture mAb063 coated; biotin-hIL1RAP.
The target is the same in assay [3]. The assay is described as follows: competition ELISA; competitor: capture mAb067 coated; biotin-hIL1RAP.
For assay [4] the target is unchanged. Description: competition ELISA; competitor: capture mAb016 coated; biotin-hIL1RAP.
Assay [5] shares this target. The assay is described as follows: competition ELISA; competitor: capture mAb117 coated; biotin-hIL1RAP.
For assay [6] the target is unchanged. Description: competition ELISA; competitor: capture mAb048 coated; biotin-hIL1RAP.

Sequence of biotin-labeled human IL1RAP (human) (Q9NPH3 21-367 limits assumed): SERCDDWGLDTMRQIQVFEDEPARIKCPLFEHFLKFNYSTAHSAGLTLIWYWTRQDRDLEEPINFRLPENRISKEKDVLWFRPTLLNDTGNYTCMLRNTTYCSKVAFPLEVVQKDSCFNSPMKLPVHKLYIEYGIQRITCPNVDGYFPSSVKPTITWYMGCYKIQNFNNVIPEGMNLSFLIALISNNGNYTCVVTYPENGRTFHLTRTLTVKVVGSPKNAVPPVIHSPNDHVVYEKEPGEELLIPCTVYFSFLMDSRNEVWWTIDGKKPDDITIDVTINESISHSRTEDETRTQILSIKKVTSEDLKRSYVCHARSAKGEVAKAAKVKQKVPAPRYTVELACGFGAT

B1: murine mAb117 (antibody, V domains shown)
VH: QAYLQQSGAELVRPGASVKMSCKASGYTFTSYNMHWVKQSPRQGLEWVGVFYLGNGDTSYNEKFKGKATLTVDKSSSTAYMQLSSLTSEDSAVYFCARPGGYANWYFDVWGTGTTVTVSS
VL: DIVMTQSQKFMSTSVGDWVSVTCKASQNVGTEVSWYQQKPGQSPNTLIYSASYRHSGVPDRFTGSGSGTEFTLTITNVQSEDLADYFCQQYNSFPLTFGAGTKLDLK
Turning to B1, the % inhibition in assay [1] came to 93%; in assay [2], 87%; in assay [3], 86%; in assay [4] it was 98%; in assay [5] it was 95%; in assay [6], 83%.

B2: murine mAb001 (antibody, V domains shown)
VH: QVQLQQPGAELVRPGSSVKLSCKASGYTFTSYWMDWVKQRPGQGLEWIGNIYPSDSKTHYNQKFKDKATLTVDKSSSTAYMQLSSLTSEDSAVYYCARDYYGSIGMDYWGQGTSVTVSS
VL: DIQMTQSPSSLSASLGERVSLTCRASQEISGYLSWLQQKPDGTIKRLIYAASTLDSGVPKRFSGSRSGSDYSLTISSLESEDFADYYCLQYASYPWTFGGGTKLEIK
As to B2, the % inhibition is 93% in assay [1]; 75% in assay [2]; 76% in assay [3]; 90% in assay [4]; 82% in assay [5]; 68% in assay [6].

B3: murine mAb016 (antibody, V domains shown)
VH: B2 VH with K57A, V72I, Y108S
VL: B2 VL with G31D, Y94F
For B3, the % inhibition in assay [1] came out at 95%; in assay [2], 80%; in assay [3], 76%; in assay [4], 94%; in assay [5] it was 89%; in assay [6], 78%.

B4: murine mAb048 (antibody, V domains shown)
VH: QVQLQQPGADLVKPGASVKLSCKAYGYTFFSYWMHWVRQRPGQGLEWIGMIHPNSGTTNNNEKFKSKATLTVDKSFSTAYMQLSSLTSEDSAVYYCARGYSNYDFDYWGQGTILTVSS
VL: DIKMTQFPSSMYASLGERVTITCKASQDINTYLIWIQQKPGKSPKTLIYRANRLADGVPSRFSGSGSGQDSSLTISSLEHEDMGIYYCLQYDEFPYTFGGGTKLEIK
Take B4: the % inhibition came out at 95% in assay [1]; 86% in assay [2]; 90% in assay [3]; 98% in assay [4]; 94% in assay [5]; 84% in assay [6].

B5: mAb063 (antibody, V domains shown)
VH: EVQLQQSGPELVKPGASVKISCKASGYTFTDYYMNWVKQSHGKSLEWIGHINPNSGSTTYTEKFKDKATLTVDKSSSTAYMELRSLTSDDSAVYYCVRRIGKNWHCDVWGTGTTVTVSS
VL: DIVLTQSPASLAVSLGQRATISCRASESVNFHGTHLMHWYQQKPGQAPKLLIYAASNLDSGVPARFSGSGSETDFTLNIHPVEEEDAATYFCQQSIEDPFTFGSGTYLEIK
Take B5: the % inhibition was 94% in assay [1]; 96% in assay [2]; 87% in assay [3]; 97% in assay [4]; 92% in assay [5]; 82% in assay [6].

B6: murine mAb067 (antibody, V domains shown)
VH: QVKLHQSGAELAKPGASVKMSCKASGYTFNSYWIHWVKQRPGQGLEWIGYNNPTSGYSEYNQKFTDKATLSADKSSSTAYMQLSSLTSEDSAVYYCVREYGDLFAYWGQGTLVTVSA
VL: NIVMTQSPKSMSMSVGERVTLSCKASENVGYSVSWFQQKPDQSPKLLIYGASNRYTGVPDRFTGSGSATDFTLTISTVQAEDLADYHCGQIYIYPYTFGGGTKLEIK
As for B6, the % inhibition stood at 94% in assay [1]; 72% in assay [2]; 87% in assay [3]; 97% in assay [4]; 91% in assay [5]; 83% in assay [6].
